From publication doi:10.1101/580449 (bioRxiv, 2019)

Target: the molecule itself
Assay: crystal structure

B1: CMP-sialic acid transporter homologue from Zea mays (CSTZM), wildtype-like crystallization construct (natural protein)
chain: MQWYLVAALLTILTSSQGILTTLSQSNGKYNYDYATIPFLAELFKLSVSGFFLWKECRTSPSVRMTKEWRSVRLYVVPSVIYLIHNNVQFATLTYVDPSTYQIMGNLKIVTTGILFRLVLKRKLSNIQWMAIVLLAVGTTTSQVKGCGDSPCDSLFSAPLEGYLLGILSACLSALAGVYTEYLMKKNNDSLYWQNVQLYTFGVIFNMGWLIYGDFKAGFELGPWWQRLFNGYSITTWMVVFNLGSTGLLVSWLMKYSDNIVKVYSTSMAMLLTMVLSIYLFSVKATIQLFLGIIICIISLQMYFMPVHMLIELPQTLPVTSKENLYFQ
binding result: binds
